Reference: US20260098102A1 (NATIONAL UNIVERSITY CORPORATION KOBE UNIVERSITY, published 2026)
One block for each binder: values may come before it.

Tests used:
SIRPA_V2_IgV = biological target: T1, SIRPA_V2_IgV (human); experiment: SPR Biacore T200, antibody captured on anti-human IgG (Fc), SIRPA_V2_IgV as analyte (0.25 to 16 nM), 1:1 model
T1 construct: Secreted recombinant protein; The crystal model held residues 33 to 143 of human SIRPA Variant 2
Description: The dissociation constants were measured by a capture method comprising capturing each antibody as a ligand to an Anti-Human IgG (Fc) antibody immobilized using Human Antibody Capture Kit (GE Healthcare Bioscience Corp.) and measuring an antigen as an analyte, using Biacore T200 (GE Healthcare Bioscience Corp.). HBS-EP+ (GE Healthcare Bioscience Corp.) was used as a running buffer, and CM5 (GE Healthcare Bioscience Corp.) was used as a sensor chip. Onto the chip, 2 μg/mL of various antibodies were added at 10 μL/min for 30 seconds, then a serially diluted solution (0.25 to 16 nM) of the human SIRPA protein as an antigen was added at a flow rate of 30 μL/min for 120 seconds, and subsequently the dissociation phase for 600 seconds was monitored. As a regenerant, 3 M magnesium chloride (GE Healthcare Bioscience Corp.) was added at a flow rate of 20 μL/min for 30 seconds. For data analysis, a binding rate constant (ka), a dissociation rate constant (kd), and a dissociation constant (KD; KD=kd/ka) were calculated using a 1:1 binding model.

human SIRPA_V1 protein [1] = biological target: T2, human SIRPA_V1 protein (human, UniProt P78324 31-504); experiment: blocking cell-based ELISA: peroxidase-labeled CD47-Fc (1 µg/mL) on 293α cells expressing SIRPA_V1
T2 construct: Expressed on 293α cells from pcDNA3.2 V5-DEST or pFLAG V5-DEST (FLAG-tagged) vectors; also called human SIRPA Variant 1; hSIRPA V1
Description: After the culture supernatant of the human SIRPA_V1 or V2 expression vector-introduced 293 cells prepared in Example 9)-1 was removed, 50 μL per well of various anti-SIRPA antibodies or various control Human IgG diluted with 5% FBS-containing PBS to a final concentration of 0 to 10,000 ng/ml was added to each of pcDNA3.2 V5-DEST-SIRPA_V1 or V2-introduced 293α cells, immediately followed by addition of 50 µL per well of peroxidase-labeled CD47-Fc prepared with 5% FBS-containing PBS at 1 μg/mL, and the mixture was allowed to stand at 4° C. for one hour. Thereafter, the SIRPA-CD47 binding inhibitory activity was evaluated in the same manner as in 1)-6-3.

human SIRPA_V1 protein [2] = biological target: T2, human SIRPA_V1 protein; experiment: blocking cell-based ELISA: peroxidase-labeled CD47-Fc (10,000 ng/mL) on 293α cells expressing SIRPA_V1; y axis = CD47-Fc signal in % of no antibody [i]
Description: After the culture supernatant of the human SIRPA and monkey SIRPA expression vector-introduced 293α cells prepared in Examples 5)-1 and 5)-2, respectively, was removed, 50 μL per well of cD13 (IgG2 and IgG4pf), cF44 (four different constant regions IgG1, IgG2, IgG4p, and IgG4pf), and cF63 (IgG2 and IgG4pf) diluted with 5% FBS-containing PBS to final concentrations of 0 to 10,000 ng/mL were added to each of pcDNA3.2 V5-DEST-SIRPA_V1, pcDNA3.2 V5-DEST-monkey SIRPA, and pcDNA3.2 V5-DEST-introduced 293α cells, immediately followed by addition of 50 μL per well of peroxidase-labeled CD47-Fc prepared in 5% FBS-containing PBS at a final concentration of 10,000 ng/ml, and the mixture was allowed to stand at 4° C. for one hour. Thereafter, the SIRPA-CD47 binding inhibitory activity was evaluated in the same manner as in 1)-6-3.

human SIRPA_V2 protein = biological target: T3, human SIRPA_V2 protein (human, UniProt P78324 31-504); experiment: blocking cell-based ELISA: peroxidase-labeled CD47-Fc (10,000 ng/mL) on 293α cells expressing SIRPA_V2; y axis = CD47-Fc signal in % of no antibody [ii]
T3 construct: Expressed on 293α cells from pcDNA3.2 V5-DEST or pFLAG V5-DEST (FLAG-tagged) vectors; also called human SIRPA Variant 2; ECD variant (full-length, amino acids 1 to 504)

T2 sequence (P78324 31-504 limits assumed): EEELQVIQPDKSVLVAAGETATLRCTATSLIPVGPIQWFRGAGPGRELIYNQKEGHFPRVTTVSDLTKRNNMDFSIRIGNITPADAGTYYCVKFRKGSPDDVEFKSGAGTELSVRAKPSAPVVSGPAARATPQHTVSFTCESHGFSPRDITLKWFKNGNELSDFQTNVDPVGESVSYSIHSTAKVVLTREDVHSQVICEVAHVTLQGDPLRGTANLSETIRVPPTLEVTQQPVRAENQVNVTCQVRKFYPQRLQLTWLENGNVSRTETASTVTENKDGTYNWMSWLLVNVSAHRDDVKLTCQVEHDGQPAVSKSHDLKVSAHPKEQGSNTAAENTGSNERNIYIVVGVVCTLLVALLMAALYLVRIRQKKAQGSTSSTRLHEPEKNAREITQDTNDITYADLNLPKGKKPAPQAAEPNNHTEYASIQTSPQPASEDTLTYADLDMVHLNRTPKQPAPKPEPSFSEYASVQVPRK
T1 sequence (chain, as listed by the source limits assumed): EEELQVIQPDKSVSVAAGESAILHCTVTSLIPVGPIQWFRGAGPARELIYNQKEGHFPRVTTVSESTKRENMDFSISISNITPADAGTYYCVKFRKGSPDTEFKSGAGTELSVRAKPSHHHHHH

Kd (SIRPA_V2_IgV): 1.17 nM | IC50 (human SIRPA_V1 protein [1]): 1.58 µg/mL
B1: humanized anti-SIRPA antibody hD13_H1L3 (antibody, human IgG4 S228P, kappa, F234A L235A, V domains shown)
VH: QVQLVESGGGVVQPGRSLRLSCAASGFTFSDYGMIWVRQAPGKGLEWVASISSSSSYIYYADSVKGRFTISRDNSKNRLYLQMNSLRAEDTAVYYCARRYYGFNYPFDYWGQGTMVTVSS
VL: DTQLTQSPSSLSASVGQRVTITCGASKSVRTYMHWYQQKPGKQPKLLIYSASNLEAGVPSRFSGSGSGTDFTLTISSLQPEDFATYYCQQSNEPPYTFGQGTKLEIKR
notes: hH1 heavy chain (IgG4proFALA) and hL3 kappa light chain; also called hD13_HIL3; HIL3 antibody

IC50 (read off the curve) (human SIRPA_V1 protein [2]): ~100 ng/mL | IC50 (read off the curve) (human SIRPA_V2 protein): ~300 ng/mL
B2: human chimeric anti-SIRPA antibody cD13 (antibody, human IgG4 S228P, kappa, F234A L235A, V domains shown)
VH: EVQLVESGGGLVQPGRSLKLSCLASGFTFSDYGMIWVRQAPGKGLEWVASISSSSSYIYYADTVKGRFTISRENAKNTLFLHMTSLRSEDTALYYCARRYYGFNYPFDYWGQGVMVTVSS
VL: DTVLTQSPALAVSLGQRVTISCGASKSVRTYMHWYQQKSGQQPKLLIYSASNLEAGVPSRFSGSGSGTDFTLTIDPVEADDIANYYCQQSNEPPYTFGAGTKLELKR
notes: Human IgG4proFALA heavy chain, human kappa light chain; also called cD13 (IgG4pf); human chimeric antibody D13
